Source: PMC2811003 (Nucleic Acids Research, 2009)
Substitutions are numbered along the chain they refer to.

Assays:
[1] = target: T1, His-tagged Neisseria gonorrhoeae PriA (Neisseria gonorrhoeae, UniProt Q5F6V8 1-729); assay: pull-down
T1 sequence (looked up): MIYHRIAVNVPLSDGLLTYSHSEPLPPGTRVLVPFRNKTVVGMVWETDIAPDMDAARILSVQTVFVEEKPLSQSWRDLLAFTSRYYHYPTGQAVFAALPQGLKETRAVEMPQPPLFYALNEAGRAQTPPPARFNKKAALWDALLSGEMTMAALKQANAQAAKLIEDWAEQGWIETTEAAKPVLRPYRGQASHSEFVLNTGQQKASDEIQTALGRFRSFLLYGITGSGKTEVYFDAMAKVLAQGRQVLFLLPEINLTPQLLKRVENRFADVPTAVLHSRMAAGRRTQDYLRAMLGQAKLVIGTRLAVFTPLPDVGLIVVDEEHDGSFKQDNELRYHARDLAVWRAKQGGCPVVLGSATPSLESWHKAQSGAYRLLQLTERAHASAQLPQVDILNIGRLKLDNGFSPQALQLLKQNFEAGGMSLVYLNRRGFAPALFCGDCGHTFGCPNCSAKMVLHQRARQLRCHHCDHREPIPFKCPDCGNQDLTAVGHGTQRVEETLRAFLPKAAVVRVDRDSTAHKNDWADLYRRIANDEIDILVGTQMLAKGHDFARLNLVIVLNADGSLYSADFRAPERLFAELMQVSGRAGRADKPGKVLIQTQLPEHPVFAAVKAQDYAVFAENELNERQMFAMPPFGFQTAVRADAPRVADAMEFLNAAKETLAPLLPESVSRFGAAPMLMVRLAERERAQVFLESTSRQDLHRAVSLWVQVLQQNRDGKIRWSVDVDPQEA

crystal structure = target: the molecule itself; assay: crystal structure
[2] = target: T2, Neisseria gonorrhoeae PriA (Neisseria gonorrhoeae, UniProt Q5F6V8 1-729); assay: fluorescence polarisation
T2 sequence: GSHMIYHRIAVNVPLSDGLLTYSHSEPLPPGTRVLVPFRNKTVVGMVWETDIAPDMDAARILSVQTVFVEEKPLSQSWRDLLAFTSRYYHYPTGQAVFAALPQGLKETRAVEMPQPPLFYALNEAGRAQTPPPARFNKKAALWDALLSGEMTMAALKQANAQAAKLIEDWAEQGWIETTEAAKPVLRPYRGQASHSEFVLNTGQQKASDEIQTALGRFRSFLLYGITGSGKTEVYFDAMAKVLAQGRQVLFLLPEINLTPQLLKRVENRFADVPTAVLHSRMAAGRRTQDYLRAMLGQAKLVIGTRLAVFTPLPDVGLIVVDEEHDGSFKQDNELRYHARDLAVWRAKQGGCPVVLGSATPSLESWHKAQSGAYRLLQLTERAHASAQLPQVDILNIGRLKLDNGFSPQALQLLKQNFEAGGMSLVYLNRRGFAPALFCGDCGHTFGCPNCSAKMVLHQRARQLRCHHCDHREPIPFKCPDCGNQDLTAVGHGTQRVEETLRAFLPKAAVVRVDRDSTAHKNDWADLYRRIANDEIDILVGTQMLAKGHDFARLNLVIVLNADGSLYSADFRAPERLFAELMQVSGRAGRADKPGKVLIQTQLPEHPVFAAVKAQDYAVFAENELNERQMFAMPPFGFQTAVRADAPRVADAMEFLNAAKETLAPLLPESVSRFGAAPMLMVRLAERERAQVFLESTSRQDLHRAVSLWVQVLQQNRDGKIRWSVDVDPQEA

PriB wild type = target: T3, PriB wild type (Neisseria gonorrhoeae FA1090, UniProt Q5F924 1-100); assay: fluorescence anisotropy
T3 sequence: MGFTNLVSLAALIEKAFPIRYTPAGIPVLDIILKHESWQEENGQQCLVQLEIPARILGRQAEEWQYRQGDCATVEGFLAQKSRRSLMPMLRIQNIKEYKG

PriB E41A = target: T4, PriB E41A (Neisseria gonorrhoeae FA1090, UniProt Q5F924 1-100, E41A); assay: fluorescence anisotropy
T4 sequence: T3 sequence with E41A

PriB Y21A = target: T5, PriB Y21A (Neisseria gonorrhoeae FA1090, UniProt Q5F924 1-100, Y21A); assay: fluorescence anisotropy
T5 sequence: T3 sequence with Y21A

B1: Neisseria gonorrhoeae PriB (natural protein)
chain: GSHMGFTNLVSLAALIEKAFPIRYTPAGIPVLDIILKHESWQEENGQQCLVQLEIPARILGRQAEEWQYRQGDCATVEGFLAQKSRRSLMPMLRIQNIKEYKG
B1 was tested, and the binding result [1] was “binds” and the “stoichiometry N” value (crystal structure) was 2.

B2: FITC-labeled Neisseria gonorrhoeae PriB (natural protein)
chain: B1 chain
modifications: FITC (fluorescein isothiocyanate) label, 0.34 FITC per PriB dimer; labeled residue not stated
In the case of B2, the Kd [2] is reported as 137 nM.

With GCCGTGATCACCAATGCAGATTGACGAACCTTTGCTCCAGTAACC (ssDNA) [45-base fluoro-ssDNA] the Kd (PriB wild type) was 1020 ± 34 nM.

With AAGCACAATTACCCACGC (ssDNA) [18-base fluoro-ssDNA] the Kd (PriB wild type) was 662 ± 37 nM.

With GCCGTGATCACCAATGCAGATTGACGAACCTTTGCC (ssDNA) [36-base fluoro-ssDNA] the Kd (PriB E41A) was 139 ± 26 nM, the Kd (PriB Y21A) was 641 ± 41 nM and the Kd (PriB wild type) was 475 ± 20 nM.
